± gives the standard deviation of the averaged measurements.
Tested on: ATP
Assay: switch fluorescence ratio, 500 uM ATP over buffer (Cy3 cluster intensity, sum of 5 cycles each) (fold (ratio)); higher = stronger signal-on switching upon ATP binding; sequences stand for … in TCGTCGGCAGCGTCAGATGTGTATAAGAGACAGTTTTTTTTTTTTTTTTTTTTTTTTT…TC
Details: aptamer strand: ATP DNA aptamer (quencher-CACCTGGGGGAGTATTGCGGAGGAAGG + anchor), 100 nM annealed; ATP concentration: 500 uM
Procedure, shortened: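 Clusters with intensities outside 100-1000 RFU were excluded. The remaining Cy3-labelled switching-strand clusters on a modified Illumina MiSeq flow-cell had been annealed to 100 nM quencher-labelled ATP aptamer and imaged in selection buffer, then after 15 min with 500 uM ATP at 22 °C, for five cycles separated by NaOH stripping and re-annealing. The fluorescence ratio, averaged per switch-domain sequence, is each cluster's summed target-cycle Cy3 intensity over its summed buffer-cycle Cy3 intensity.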
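Further: ATP exposure 15 min at 22 °C before imaging.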

| Sequence | switch fluorescence ratio |
| --- | --- |
| AGAAATCTTG | 0.983 ± 0.021 |
| AGAACCACCG | 1.12 ± 0.032 |
| AGAAGAATTG | 1.04 ± 0.048 |
| AGAAGAGGTG | 1.07 ± 0.029 |
| AGAAGAGTGT | 1.03 ± 0.038 |
| AGAAGCGCGG | 0.975 ± 0.044 |
| AGAAGGGTT | 1.016 ± 0.0044 |
| AGAAGTGGGG | 0.989 ± 0.039 |
| AGAAGTTTTA | 1.01 ± 0.075 |
| AGAATAGTCA | 1 ± 0.037 |
| AGAATCGAAG | 0.994 ± 0.0041 |
| AGAATGGGGG | 1.02 ± 0.022 |
| AGAATGGTGA | 0.96 ± 0.061 |
| AGAATGTACG | 1.015 ± 0.0078 |
| AGAATGTGG | 1.21 ± 0.28 |
| AGAATTAGGC | 0.999 ± 0.021 |
| AGAATTAGTG | 0.953 ± 0.1 |
| AGACAAGGGT | 1.01 ± 0.018 |
| AGACAGTAGG | 1.03 ± 0.03 |
| AGACATCCTT | 1.04 ± 0.014 |
| AGACGAGGAA | 1.03 ± 0.058 |
| AGACGCCAAG | 1.01 ± 0.029 |
| AGACGCGTAG | 0.999 ± 0.046 |

| Sequence | switch fluorescence ratio |
| --- | --- |
| AGACGCTTG | 0.9961 ± 0.0042 |
| AGACGGAGGG | 1.015 ± 0.0017 |
| AGACGGATGC | 1.05 ± 0.019 |
| AGACGGCGTG | 0.9799 ± 0.0066 |
| AGACGGCTTG | 1.01 ± 0.025 |
| AGACGGGAAC | 1 ± 0.022 |
| AGACGGGGGG | 1 ± 0.039 |
| AGACGGGTGG | 0.9763 ± 0.0052 |
| AGACGTGTGT | 1.023 ± 0.0088 |
| AGACTAGTTT | 1.02 ± 0.015 |
| AGACTATGTG | 0.991 ± 0.024 |
| AGACTCACTG | 1.09 ± 0.011 |
| AGACTGATGA | 1.01 ± 0.014 |
| AGACTGTGGC | 0.991 ± 0.0061 |
| AGACTTCCGG | 0.969 ± 0.048 |
| AGACTTTTAT | 0.976 ± 0.031 |
| AGAGACGCTT | 1.03 ± 0.027 |
| AGAGAGACGG | 0.997 ± 0.026 |
| AGAGAGGTTT | 0.986 ± 0.039 |
| AGAGATCCGG | 0.981 ± 0.018 |
| AGAGATGGGG | 0.996 ± 0.022 |
| AGAGCACTTG | 1.025 ± 0.0032 |
| AGAGCAGGGA | 0.97 ± 0.064 |

| Sequence | switch fluorescence ratio |
| --- | --- |
| AGAGCGGGGT | 0.998 ± 0.0091 |
| AGAGCTCTTT | 1 ± 0.029 |
| AGAGGACCGA | 1.04 ± 0.05 |
| AGAGGCGCGT | 0.946 ± 0.036 |
| AGAGGCGTAT | 0.974 ± 0.011 |
| AGAGGCTTAC | 1.04 ± 0.051 |
| AGAGGCTTGG | 0.997 ± 0.014 |
| AGAGGGCCGG | 1.03 ± 0.072 |
| AGAGGGCGGA | 1 ± 0.02 |
| AGAGGGCTTG | 0.997 ± 0.018 |
| AGAGGGGAT | 1 ± 0.021 |
| AGAGGGGGCC | 0.98 ± 0.18 |
| AGAGGGGGGA | 1.02 ± 0.041 |
| AGAGGGGGGC | 1.04 ± 0.1 |
| AGAGGGGTCG | 1.02 ± 0.058 |
| AGAGGGTGAC | 1.01 ± 0.016 |
| AGAGGTGGGG | 0.968 ± 0.012 |
| AGAGGTTGG | 0.996 ± 0.026 |
| AGAGTAACGG | 0.995 ± 0.015 |
| AGAGTATTTT | 0.999 ± 0.028 |
| AGAGTCAGTG | 0.982 ± 0.022 |
| AGAGTGATGC | 1 ± 0.087 |
| AGAGTGCTTC | 0.999 ± 0.028 |

| Sequence | switch fluorescence ratio |
| --- | --- |
| AGAGTGGCAA | 1.04 ± 0.016 |
| AGAGTGTGGG | 1.02 ± 0.033 |
| AGAGTTAACG | 0.97158 ± 0.00066 |
| AGAGTTAATG | 0.968 ± 0.011 |
| AGAGTTCCTG | 1.01 ± 0.028 |
| AGAGTTGGGA | 1.01 ± 0.018 |
| AGAGTTTCGA | 1.01 ± 0.034 |
| AGAGTTTGGT | 0.9847 ± 0.0013 |
| AGATAACCCA | 1 ± 0.052 |
| AGATAAGTTT | 1.01 ± 0.034 |
| AGATAATGGC | 1.11 ± 0.19 |
| AGATAGAGTT | 0.997 ± 0.021 |
| AGATAGCAGT | 1.019 ± 0.0016 |
| AGATAGGGGG | 1 ± 0.034 |
| AGATAGGTTG | 0.974 ± 0.038 |
| AGATAGTTGG | 0.99 ± 0.038 |
| AGATATGGTT | 0.994 ± 0.048 |
| AGATATTCCG | 0.987 ± 0.02 |
| AGATATTTGG | 0.994 ± 0.018 |
| AGATCCGGGT | 0.992 ± 0.025 |
| AGATCGAACT | 0.994 ± 0.019 |
| AGATCGACGC | 1.19 ± 0.026 |
| AGATCGTGAA | 1 ± 0.0032 |

| Sequence | switch fluorescence ratio |
| --- | --- |
| AGATCTATAC | 1.018 ± 0.0096 |
| AGATCTTGTA | 0.991 ± 0.065 |
| AGATGAAGTG | 0.99 ± 0.019 |
| AGATGAGAGA | 1 ± 0.016 |
| AGATGAGAGT | 1 ± 0.018 |
| AGATGAGGAC | 0.922 ± 0.049 |
| AGATGGAATT | 0.994 ± 0.048 |
| AGATGGATAA | 0.99 ± 0.015 |
| AGATGGCATG | 0.987 ± 0.019 |
| AGATGGCTGG | 1.02 ± 0.012 |
| AGATGTAGGC | 1.03 ± 0.038 |
| AGATGTGGGT | 0.972 ± 0.02 |
| AGATGTTCCG | 1.05 ± 0.018 |
| AGATGTTGGG | 0.992 ± 0.07 |
| AGATTACGAG | 1.02 ± 0.026 |
| AGATTATCGT | 1.007 ± 0.0088 |
| AGATTATTGA | 0.943 ± 0.031 |
| AGATTCTCGA | 0.998 ± 0.011 |
| AGATTGAATT | 1.02 ± 0.062 |
| AGATTGGGCA | 0.981 ± 0.011 |
| AGATTGGTTC | 0.9953 ± 0.0044 |
| AGATTGTACA | 1.02 ± 0.02 |
| AGATTTTCGC | 1 ± 0.0091 |

| Sequence | switch fluorescence ratio |
| --- | --- |
| AGATTTTGTG | 0.9922 ± 0.0038 |
| AGCAAAGAAT | 1.02 ± 0.042 |
| AGCAAAGTGT | 1.02 ± 0.071 |
| AGCAACAGTT | 1.19 ± 0.28 |
| AGCAATAGGT | 1.94 ± 0.46 |
| AGCAATGCTT | 3.09 ± 0.29 |
| AGCACAGGGG | 0.985 ± 0.045 |
| AGCACATGTA | 0.998 ± 0.021 |
| AGCACGCTTT | 1.019 ± 0.0063 |
| AGCACGGCAG | 0.991 ± 0.021 |
| AGCACGTATC | 1.09 ± 0.059 |
| AGCAGAAAAT | 1.01 ± 0.025 |
| AGCAGGACCC | 1.23 ± 0.054 |
| AGCAGGAGCC | 1.061 ± 0.0063 |
| AGCAGGAGGG | 1.022 ± 0.0081 |
| AGCAGGCGAA | 1.009 ± 0.0035 |
| AGCAGGGCTG | 0.99566 ± 0.00073 |
| AGCAGGGGAC | 1.18 ± 0.23 |
| AGCAGGGGGA | 1.01 ± 0.034 |
| AGCAGGGTGG | 1.02 ± 0.038 |
| AGCAGGTGTG | 1.18 ± 0.048 |
| AGCAGTTGGG | 1.03 ± 0.065 |
| AGCATAATTG | 1.01 ± 0.0076 |

| Sequence | switch fluorescence ratio |
| --- | --- |
| AGCATACAAA | 0.98 ± 0.012 |
| AGCATAGTCG | 1.04 ± 0.029 |
| AGCATCATTT | 0.971 ± 0.024 |
| AGCATGTGGT | 1 ± 0.026 |
| AGCATTAATT | 0.988 ± 0.043 |
| AGCATTACGT | 2.02 ± 0.089 |
| AGCATTGTGG | 0.996 ± 0.018 |
| AGCATTTTTC | 1.02 ± 0.028 |
| AGCCAGGGGG | 1.03 ± 0.043 |
| AGCCCTGGCG | 0.9504 ± 0.0071 |
| AGCCGAGTGC | 1.02 ± 0.06 |
| AGCCGGGGGA | 1.05 ± 0.071 |
| AGCCTCCGGT | 1.13 ± 0.073 |
| AGCCTTTGTC | 0.982 ± 0.041 |
| AGCGAAATCT | 1.08 ± 0.03 |
| AGCGAACGGG | 1.05 ± 0.025 |
| AGCGACCCGG | 1.08 ± 0.033 |
| AGCGAGGTCT | 0.977 ± 0.027 |
| AGCGCTTATG | 1 ± 0.022 |
